Laboratory results reported in article PMC12615762.

Substrate: NCCC(=O)N[C@@H](Cc1cnc[nH]1)C(=O)O
Experiment: purified protein
Conditions: SAM

B1: carnosine N-methyltransferase (CNMT, CARNMT1, C9orf41) (Homo sapiens) (protein)
chain: MQRRRRPPPPTSRLPEGCGGGGGGSEEVEVQFSAGRWGSAAAVSAAAAAATRSTEEEEERLEREHFWKIINAFRYYGTSMHERVNRTERQFRSLPANQQKLLPQFLLHLDKIRKCIDHNQEILLTIVNDCIHMFENKEYGEDGNGKIMPASTFDMDKLKSTLKQFVRDWSETGKAERDACYQPIIKEILKNFPKERWDPSKVNILVPGAGLGRLAWEIAMLGYACQGNEWSFFMLFSSNFVLNRCSEINKYKLYPWIHQFSNNRRSADQIRPIFFPDVDPHSLPPGSNFSMTAGDFQEIYSECNTWDCIATCFFIDTAHNVIDYIDTIWKILKPGGIWINLGPLLYHFENLANELSIELSYEDIKNVVLQYGFKVEVEKESVLSTYTVNDLSMMKYYYECVLFVVRKPQ
Km: 4.631 µM
